Experimental data taken from patent US20210009673A1, “METHODS FOR REGULATING BREAST CANCERS” (priority 2018, published 2021).

What was measured:
MCF-7 cells = experiment: homophilic cell-cell adhesion assay (ratio NTC/NTE); assay type: cell-based
Description: FIG. 4: FIG. 4 illustrates in: (A), β-catenin phosphorylated by ALK at tyrosine 333 decreases the association of β-catenin with cadherin. Recombinant E-cadherin serine 692 was phosphorylated with CK2 and GSK3β and incubated with recombinant GST-β-catenin, with GST-β-catenin phosphorylated in vitro by ALK, with GST-β-catenin Y333F, or with GST-β-catenin K292A, Y333F, K335A. The GST-conjugated proteins were captured with glutathione-conjugated beads and the phospho-Ser692-E-cadherin that associated with the GST-conjugated proteins was eluted and analyzed in Western blots probed with anti-β-catenin and anti-E-cadherin antibodies. […] After incubation for 20 minutes at 37° C., β-catenin was then captured with glutathione beads and, after extensive washing, eluted with SDS buffer and analyzed in Western blots with either anti-pan-cadherin antibodies, anti-phospho-tyrosine antibodies, or anti-β-catenin antibodies to determine if β-catenin phosphorylated by ALK at tyrosine 333 associates with cadherin. […] The ratio of cells dissociated in calcium-containing media (NTC) vs. the cells dissociated in calcium-free media (NTE) (a “dissociation index,” see Experimental Procedures) was measured. […] The morphological appearance was then analyzed 36 hours later and compared with cells transfected with an equal amount of control empty vector. […]

EGFR = experiment: tyrosine phosphorylation of EGFR in HUVS cells; assay type: cell-based, human
Description: FIG. 10: FIG. 10 illustrates: (A), HUVS cells were stimulated with PTN for 2, 5, and 15 minutes. Cell lysates were used to immunoprecipitate EGFR and the immunoprecipitates were analyzed in Western blots probed with anti-phosphotyrosine antibodies. In (B), Lysates from PTN-stimulated HUVS cells that express EGFR were incubated with GST-RPTPβ/ζ D1, GST-RPTPβ/ζ D1 (C1932S), and GST-RPTPβ/ζ D1 (D1900A), a “substrate trap” mutant, which captures the substrate phosphoryl-intermediate in the active site of RPTPβ/ζ with high affinity and specificity. The proteins captured were analyzed in Western blots probed with anti-EGFR antibodies and separately with anti-GST antibodies. In (C), HUVS cells were co-transfected with a full-length EGFR and the vector pC4-Fv1E encoding the Fv domain of FKBP12 needed for enforced dimerization induced by AP20187 (Clackson, Yang et al. 1998) in frame with the intracellular domain of RPTPβ/ζ. AP20187 (2 μM) enforced homodimerization of RPTPβ/ζ and stimulated increase in tyrosine phosphorylation of EGFR 2′, 5′, 10′, and 20′ after stimulation compared with control cells transfected with EGFR alone. (D) A retroviral vector (pSM2) encoding shRNA to “knock down” RPTPβ/ζ was tested in HUVS cells that express endogenous RPTPβ/ζ and EGFR. The cells were stimulated with PTN and cell lysates were used to prepare immunoprecipitates with anti-EGFR antibodies and the immunoprecipitates analyzed in Western blots probed with anti-phosphotyrosine antibodies.
Cell lysates prepared in a lysis buffer containing 50 mM Tris, 150 mM NaCl pH 7.5, 1% NP40, 0.25% sodium deoxycholate, 0.1% SDS, Complete EDTA-free Protease Inhibitor Cocktail (Roche, Indianapolis, Ind.), and 2 mM sodium orthovanadate were pre-cleared by incubation with 2 μg antibodies followed by one hour incubation with protein G-agarose beads. The beads were washed 4 times in the same lysis buffer, eluted in loading buffer containing 240 mM Tris pH 6.8, 40% glycerol, 20% SDS, 2.5% β-mercaptoethanol and 0.01% bromophenol blue and analyzed in Western blots probed with different antibodies as individually described.
PI3K also is activated by an activated Epidermal Growth Factor Receptor (EGFR). We therefore investigated the possibility EGFR is implicated in the translocation of β-catenin to nucleus in PTN-stimulated cells. HUVS were stimulated with PTN for 2, 5, and 15 minutes. Lysates from these cells were immunoprecipitated with anti-EGFR antibodies and the immunoprecipitates were analyzed in Western blots probed with anti-phosphotyrosine antibodies. Tyrosine phosphorylation of EGFR was increased about 5.8-fold at two minutes after HUVS cells were stimulated with PTN, about 11-fold at 5 minutes, and about 5-fold 15 minutes after stimulation with PTN (FIG. 10A).
To establish whether phosphorylation of EGFR is dependent on enforced dimerization of RPTPβ/ζ, which is the consequence of the interaction of PTN with RPTPβ/ζ, HUVS cells were then co-transfected with a full-length EGFR and the vector pC4-Fv1 E. The vector pC4-Fv1 E encodes the Fv domain of FKBP12 in frame with the intracellular domain of RPTPβ/ζ; it effectively enforces dimerization of RPTPβ/ζ when cells are stimulated with AP20187. AP20187 (2 μM) was added to HUVS cells that expressed full-length EGFR and pC4-Fv1 E as above. […]

B1: pleiotrophin (protein, UniProt P21246 33-168, looked up)
Pleiotrophin: GKKEKPEKKVKKSDCGEWQWSVCVPTSGDCGLGTREGTRTGAECKQTMKTQRCKIPCNWKKQFGAECKYQFQAWGECDLNTALKTRTGSLKRALHNAECQKTVTISKPCGKLTKPKPQAESKKKKKEGKKQEKMLD
ratio NTC/NTE (MCF-7 cells; PTN-stimulated MCF7 cells expressing both RPTPβ/ζ and ALK): about 0.38
ratio NTC/NTE (MCF-7 cells; PTN-stimulated MCF-7 cells transfected with ALK alone): about 0.25
increase in tyrosine phosphorylation of EGFR (EGFR; 5 minutes after PTN): about 11 fold
increase in tyrosine phosphorylation of EGFR (EGFR; 15 minutes after PTN): about 5 fold
tyrosine phosphorylation of EGFR (EGFR; RPTPβ/ζ knocked down with shRNA): failed to stimulate
increase in tyrosine phosphorylation of EGFR (EGFR; cells transfected with pSM2 control vector): ~5 fold
increase in tyrosine phosphorylation of EGFR (EGFR; two minutes after PTN): about 5.8 fold
